Laboratory results reported in US20260232824A1 (published 2026).
Each block holds one binder with its values, some of them ahead of it.

Key:
Test in all cases: SPR; antibody captured in bivalent format
[1] = target: T1, His-tagged rhesus CD180 from Creative Biomart (CD180-1598R) (rhesus, UniProt F7GX75 24-626)
T1 chain: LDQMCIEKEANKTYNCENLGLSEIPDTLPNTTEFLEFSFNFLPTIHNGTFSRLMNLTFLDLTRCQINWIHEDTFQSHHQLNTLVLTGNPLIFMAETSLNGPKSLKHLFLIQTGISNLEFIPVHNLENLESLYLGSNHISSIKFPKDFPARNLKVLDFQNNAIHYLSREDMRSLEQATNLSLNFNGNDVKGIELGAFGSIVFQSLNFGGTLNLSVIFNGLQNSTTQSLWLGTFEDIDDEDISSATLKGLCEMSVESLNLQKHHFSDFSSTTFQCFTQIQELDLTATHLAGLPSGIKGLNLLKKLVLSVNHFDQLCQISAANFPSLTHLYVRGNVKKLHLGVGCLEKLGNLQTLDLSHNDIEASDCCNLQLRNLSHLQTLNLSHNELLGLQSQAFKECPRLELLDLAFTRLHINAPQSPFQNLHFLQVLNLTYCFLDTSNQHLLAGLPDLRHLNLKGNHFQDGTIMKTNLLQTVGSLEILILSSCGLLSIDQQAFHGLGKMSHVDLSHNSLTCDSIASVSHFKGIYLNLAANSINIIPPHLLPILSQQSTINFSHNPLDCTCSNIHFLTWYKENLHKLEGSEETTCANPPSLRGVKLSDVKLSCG

[2] = target: T2, human CD180 extracellular domain (ECD) HIS-tagged protein (Sino Biological, 11370-H08H) (human, UniProt Q99467 24-626)
T2 chain: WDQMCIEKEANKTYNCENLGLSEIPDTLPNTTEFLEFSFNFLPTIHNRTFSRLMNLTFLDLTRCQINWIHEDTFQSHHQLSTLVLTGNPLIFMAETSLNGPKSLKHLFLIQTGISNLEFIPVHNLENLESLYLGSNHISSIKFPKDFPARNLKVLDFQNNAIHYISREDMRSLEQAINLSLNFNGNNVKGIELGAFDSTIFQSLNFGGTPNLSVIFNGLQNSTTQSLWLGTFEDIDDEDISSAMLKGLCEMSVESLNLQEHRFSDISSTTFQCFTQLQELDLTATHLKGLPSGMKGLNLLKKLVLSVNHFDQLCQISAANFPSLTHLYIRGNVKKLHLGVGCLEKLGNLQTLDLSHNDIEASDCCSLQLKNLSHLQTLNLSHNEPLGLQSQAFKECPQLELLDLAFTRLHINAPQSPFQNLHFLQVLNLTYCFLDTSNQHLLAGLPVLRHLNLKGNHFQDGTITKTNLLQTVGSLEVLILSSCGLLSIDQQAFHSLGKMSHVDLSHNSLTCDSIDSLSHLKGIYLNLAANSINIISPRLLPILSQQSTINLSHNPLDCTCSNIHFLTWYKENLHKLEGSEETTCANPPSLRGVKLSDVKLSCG

[3] = target: T3, human CD180 extracellular domain (ECD) HIS-tagged protein (Creative Biomart, CD180-3900H) (human, UniProt Q99467 24-626)
T3 chain: T2 chain

Kd [1]: 0.05 nM
Kd [2]: 3.4 nM
Kd [3]: 4.7 nM
B1: Ab-007 (antibody, V domains shown)
VH: EVQLVESGGGVVRPGGSLRLSCAASGFTFDDYAMSWVRQAPGKGLEWVSDINWNGGTTSYADSVKGRFTISRDNAKNSLFLQMNSLRAEDTALYYCARKGRDTVVVKGYYYFSYYMDVWGKGSTVTVSS
VL: not shown

Kd [1]: 0.4 nM
Kd [2]: 6.8 nM
Kd [3]: 12 nM
B2: Ab-006 (antibody, V domains shown)
VH: EVQLVESGGGLVKPGGSLRLSCTASGFTFDDYDMTWVRQAPGKGLEWVSGINWNGGNTDYADSVKGRFTISRDNTKNSLYLQMNSLRAEDTALYYCARKGRDIVVVKGFYYHYYYMDVWGKGITVTVSS
VL: not shown
